Experimental data as given in US6844486 (TEMASEK LIFE SCIENCES LABORATORY, dated 2005).

B1: GAL4 activation domain-NAC1 fusion, NAC1 amino acids 143 to the C-terminus (plasmid pGANAC1 143-324) (other, not shown: large carriers; small tags and cut ends)
chain: FRLQGSHHPPNHSLSSPKEDWVLCRVFHKNTEGVICRDNMGSCFDETASASLPPLMDPYINFDQEPSSYLSDDHHYIINEHVPCFSNLSQNQTLNSNLTNSVSELKIPCKNPNPLFTGGSASATLTGLDSFCSSDQMVLRALLSQLTKIDGSLGPKESQSYGEGSSESLLTDIGIPSTVWNC
notes: Yeast two-hybrid prey
B2: GAL4 activation domain-NAC1 fusion, first 142 amino acids of NAC1 (plasmid pGANAC1 1-142) (other, not shown: large carriers)
chain: METEEEMKESSISMVEAKLPPGFRFHPKDDELVCDYLMRRSLHNNHRPPLVLIQVDLNKCEPWDIPKMACVGGKDWYFYSQRDRKYATGLRTNRATATGYWKATGKDRTILRKGKLVGMRKTLVFYQGRAPRGRKTDWVMHE
notes: Yeast two-hybrid prey

Target: T1, GAL4 DNA binding domain-NAC1 fusion, first 199 amino acids of NAC1 (plasmid pGBNAC1 1-199) (Arabidopsis thaliana)
T1 construct: Yeast two-hybrid bait used as the fixed partner for testing the deletions; also called pGBNACl1-199; 199 amino acid version
Assay: yeast two-hybrid in HF7c, HIS3 reporter
Text: Two-hybrid analysis (Bartel et al., 1993; Fields and Song, 1989; Chevray and Nathans, 1992; Lee et al., 1995) was applied to dimerization analysis. The yeast strain HF7c (MATa ura3–52 his3–200 ade2–101 lys2–801 trp1–901 leu2–3,112 gal4–542 gal 80–538 LYS2::GAL1$UAS$-GAL1$TATA$-HIS3 URA3::GAL4_{17mers(x3)}-CyC1$TATA$-LacZ which contains the two reporter genes LacZ and HIS3 was used. Yeast cotransformation with plasmids carrying the different Gal4 DNA binding domain and the Gal4 activation domain fusion was performed by methods known to those of skill in the art. See, e.g., Burke and Olson, 1986; Rudolph et al., 1985; Sakai et al., 1984. Other conditions have been described in detail elsewhere and are well known to those of skill in the art. To corroborate the interaction between the two fusion proteins, â-galactosidase activity was assayed by a replica filter assay.

Binder | binding result
B1 | no binding
B2 | no binding
